B1: Ovalbumin, P01012 (parent)
chain: MGSIGAASMEFCFDVFKELKVHHANENIFYCPIAIMSALAMVYLGAKDSTRTQINKVVRFDKLPGFGDSIEAQCGTSVNVHSSLRDILNQITKPNDVYSFSLASRLYAEERYPILPEYLQCVKELYRGGLEPINFQTAADQARELINSWVESQTNGIIRNVLQPSSVDSQTAMVLVNAIVFKGLWEKAFKDEDTQAMPFRVTEQESKPVQMMYQIGLFRVASMASEKMKILELPFASGTMSMLVLLPDEVSGLEQLESIINFEKLTEWTSSNVMEERKIKVYLPRMKMEEKYNLTSVLMAMGITDVFSSSANLSGISSAESLKISQAVHAAHAEINEAGREVVGSAEAGVDAASVSEEFRADHPFLFCIKHIATNAVLFFGRCVSP

The variants in this series derive from B1. The conditions noted are these: Gallus gallus, Thermal, CD, structure 1UHG, whole UniProt chain shown.

Broadly, the Tm is the temperature at which the thermal transition is half complete. S237A: under “pH 7, Phosphate 10 mM”, the Tm worked out at 70.4 °C and the “change of melting temperature, mutant - wild type (higher = more stable)” value (“change of melting temperature, mutant” for short) came out at 0.6 °C. For the same variant, under “pH 10, Glycine-NaOH 0.1 M”, the Tm came to 79.3 °C and the “change of melting temperature, mutant” value is 0.4 °C.
With S321A, under “pH 7, Phosphate 10 mM”, the melting temperature (Tm) came to 69.3 °C and the “change of melting temperature, mutant” value was -0.5 °C.
Turning to R143A, the Tm by setting is: (pH 7, Phosphate 10 mM) 69.8 °C; (pH 10, Glycine-NaOH 0.1 M) 75.6 °C. Besides, the “change of melting temperature, mutant” value was 0 °C (pH 7, Phosphate 10 mM) and -3.3 °C (pH 10, Glycine-NaOH 0.1 M).
On the same counts, the results for S165A S321A are 71.3 °C, 71.8 °C, 1.5 °C and -7.1 °C.
As for S165A, the Tm amounted to 70.8 °C (pH 7, Phosphate 10 mM) and 75.6 °C (pH 10, Glycine-NaOH 0.1 M). Moreover, the “change of melting temperature, mutant” value is 1 °C (pH 7, Phosphate 10 mM) and -3.3 °C (pH 10, Glycine-NaOH 0.1 M).
For the variant R143A S321A, the Tm (pH 7, Phosphate 10 mM) turned out to be 70 °C and the Tm (pH 10, Glycine-NaOH 0.1 M) was determined as 71.2 °C. Further, the “change of melting temperature, mutant” value by setting is: (pH 7, Phosphate 10 mM) 0.2 °C; (pH 10, Glycine-NaOH 0.1 M) -7.7 °C.

Source of the values: FireProtDB (doi:10.1002/pro.398).
